{"source": "patent EP4745153A1", "about": "“GLP-1, GIP AND GCG RECEPTOR […] USE THEREOF” (Jiangsu Hengrui Pharmaceuticals Co., Ltd., priority 2023, dated 2025)", "binders": {"B1": {"name": "Compound No. 0156 (peptide)", "peptide": "H[Aib]QGTFTSDYSILLEK([AEEA-AEEA-γGlu-C20 diacid])KAA[Aib]EFVEWLLAGGPSSGAPPPS-NH2"}, "B2": {"name": "Compound No. 0157 (peptide)", "peptide": "H[Aib]QGTFTSDYSI[αMeL]LEK([AEEA-AEEA-γGlu-C20 diacid])KAA[Aib]EFVEWLLAGGPSSGAPPPS-NH2"}, "B3": {"name": "Compound No. 0136 (peptide)", "peptide": "H[Aib]HGTFTSDLSILLEK([AEEA-AEEA-γGlu-C20 diacid])KAA[Iva]EFVEWLLAGGPSSGAPPPS-NH2"}, "B4": {"name": "Compound No. 0148 (peptide)", "peptide": "H[Aib]HGTFTSDLSILLEK([AEEA-AEEA-γGlu-C20 diacid])QAA[Ac3c]EFVEWLLA[dE]GPSSGAPPPS-NH2", "modifications": "N-terminus assumed", "SMILES": "CC[C@H](C)[C@H](NC(=O)[C@H](CO)NC(=O)[C@H](CC(C)C)NC(=O)[C@H](CC(=O)O)NC(=O)[C@H](CO)NC(=O)[C@@H](NC(=O)[C@H](Cc1ccccc1)NC(=O)[C@@H](NC(=O)CNC(=O)[C@H](Cc1c[nH]cn1)NC(=O)C(C)(C)NC(=O)[C@@H](N)Cc1c[nH]cn1)[C@@H](C)O)[C@@H](C)O)C(=O)N[C@@H](CC(C)C)C(=O)N[C@@H](CC(C)C)C(=O)N[C@@H](CCC(=O)O)C(=O)N[C@@H](CCCCNC(=O)COCCOCCNC(=O)COCCOCCNC(=O)CC[C@H](NC(=O)CCCCCCCCCCCCCCCCCCC(=O)O)C(=O)O)C(=O)N[C@@H](CCC(N)=O)C(=O)N[C@@H](C)C(=O)N[C@@H](C)C(=O)NC1(C(=O)N[C@@H](CCC(=O)O)C(=O)N[C@@H](Cc2ccccc2)C(=O)N[C@H](C(=O)N[C@@H](CCC(=O)O)C(=O)N[C@@H](Cc2c[nH]c3ccccc23)C(=O)N[C@@H](CC(C)C)C(=O)N[C@@H](CC(C)C)C(=O)N[C@@H](C)C(=O)N[C@H](CCC(=O)O)C(=O)NCC(=O)N2CCC[C@H]2C(=O)N[C@@H](CO)C(=O)N[C@@H](CO)C(=O)NCC(=O)N[C@@H](C)C(=O)N2CCC[C@H]2C(=O)N2CCC[C@H]2C(=O)N2CCC[C@H]2C(=O)N[C@@H](CO)C(N)=O)C(C)C)CC1"}, "B5": {"name": "Compound No. 0151 (peptide)", "peptide": "H[Aib]HGTFTSDYSILLEK([AEEA-AEEA-γGlu-C20 diacid])KAAQEFVEWLLA[dE]GPSSGAPPPS-NH2", "modifications": "N-terminus assumed", "SMILES": "CC[C@H](C)[C@H](NC(=O)[C@H](CO)NC(=O)[C@H](Cc1ccc(O)cc1)NC(=O)[C@H](CC(=O)O)NC(=O)[C@H](CO)NC(=O)[C@@H](NC(=O)[C@H](Cc1ccccc1)NC(=O)[C@@H](NC(=O)CNC(=O)[C@H](Cc1c[nH]cn1)NC(=O)C(C)(C)NC(=O)[C@@H](N)Cc1c[nH]cn1)[C@@H](C)O)[C@@H](C)O)C(=O)N[C@@H](CC(C)C)C(=O)N[C@@H](CC(C)C)C(=O)N[C@@H](CCC(=O)O)C(=O)N[C@@H](CCCCNC(=O)COCCOCCNC(=O)COCCOCCNC(=O)CC[C@H](NC(=O)CCCCCCCCCCCCCCCCCCC(=O)O)C(=O)O)C(=O)N[C@@H](CCCCN)C(=O)N[C@@H](C)C(=O)N[C@@H](C)C(=O)N[C@@H](CCC(N)=O)C(=O)N[C@@H](CCC(=O)O)C(=O)N[C@@H](Cc1ccccc1)C(=O)N[C@H](C(=O)N[C@@H](CCC(=O)O)C(=O)N[C@@H](Cc1c[nH]c2ccccc12)C(=O)N[C@@H](CC(C)C)C(=O)N[C@@H](CC(C)C)C(=O)N[C@@H](C)C(=O)N[C@H](CCC(=O)O)C(=O)NCC(=O)N1CCC[C@H]1C(=O)N[C@@H](CO)C(=O)N[C@@H](CO)C(=O)NCC(=O)N[C@@H](C)C(=O)N1CCC[C@H]1C(=O)N1CCC[C@H]1C(=O)N1CCC[C@H]1C(=O)N[C@@H](CO)C(N)=O)C(C)C"}, "B6": {"name": "Compound No. 0107 (peptide)", "peptide": "H[Aib]HGTFTSDYSK[Aib]LEK([AEEA-AEEA-γGlu-C20 diacid])KAAQEFVEWLLAGGPSSGAPPPS-NH2"}, "B7": {"name": "Compound No. 0150 (peptide)", "peptide": "H[Aib]HGTFTSDYSILLEK([AEEA-AEEA-γGlu-C20 diacid])QAA[Ac4c]EFVEWLLA[dE]GPSSGAPPPS-NH2", "modifications": "N-terminus assumed", "SMILES": "CC[C@H](C)[C@H](NC(=O)[C@H](CO)NC(=O)[C@H](Cc1ccc(O)cc1)NC(=O)[C@H](CC(=O)O)NC(=O)[C@H](CO)NC(=O)[C@@H](NC(=O)[C@H](Cc1ccccc1)NC(=O)[C@@H](NC(=O)CNC(=O)[C@H](Cc1c[nH]cn1)NC(=O)C(C)(C)NC(=O)[C@@H](N)Cc1c[nH]cn1)[C@@H](C)O)[C@@H](C)O)C(=O)N[C@@H](CC(C)C)C(=O)N[C@@H](CC(C)C)C(=O)N[C@@H](CCC(=O)O)C(=O)N[C@@H](CCCCNC(=O)COCCOCCNC(=O)COCCOCCNC(=O)CC[C@H](NC(=O)CCCCCCCCCCCCCCCCCCC(=O)O)C(=O)O)C(=O)N[C@@H](CCC(N)=O)C(=O)N[C@@H](C)C(=O)N[C@@H](C)C(=O)NC1(C(=O)N[C@@H](CCC(=O)O)C(=O)N[C@@H](Cc2ccccc2)C(=O)N[C@H](C(=O)N[C@@H](CCC(=O)O)C(=O)N[C@@H](Cc2c[nH]c3ccccc23)C(=O)N[C@@H](CC(C)C)C(=O)N[C@@H](CC(C)C)C(=O)N[C@@H](C)C(=O)N[C@H](CCC(=O)O)C(=O)NCC(=O)N2CCC[C@H]2C(=O)N[C@@H](CO)C(=O)N[C@@H](CO)C(=O)NCC(=O)N[C@@H](C)C(=O)N2CCC[C@H]2C(=O)N2CCC[C@H]2C(=O)N2CCC[C@H]2C(=O)N[C@@H](CO)C(N)=O)C(C)C)CCC1"}, "B8": {"name": "Compound No. 0149 (peptide)", "peptide": "H[Aib]HGTFTSDYSILLEK([AEEA-AEEA-γGlu-C20 diacid])QAA[Ac3c]EFVEWLLA[dE]GPSSGAPPPS-NH2", "modifications": "N-terminus assumed", "SMILES": "CC[C@H](C)[C@H](NC(=O)[C@H](CO)NC(=O)[C@H](Cc1ccc(O)cc1)NC(=O)[C@H](CC(=O)O)NC(=O)[C@H](CO)NC(=O)[C@@H](NC(=O)[C@H](Cc1ccccc1)NC(=O)[C@@H](NC(=O)CNC(=O)[C@H](Cc1c[nH]cn1)NC(=O)C(C)(C)NC(=O)[C@@H](N)Cc1c[nH]cn1)[C@@H](C)O)[C@@H](C)O)C(=O)N[C@@H](CC(C)C)C(=O)N[C@@H](CC(C)C)C(=O)N[C@@H](CCC(=O)O)C(=O)N[C@@H](CCCCNC(=O)COCCOCCNC(=O)COCCOCCNC(=O)CC[C@H](NC(=O)CCCCCCCCCCCCCCCCCCC(=O)O)C(=O)O)C(=O)N[C@@H](CCC(N)=O)C(=O)N[C@@H](C)C(=O)N[C@@H](C)C(=O)NC1(C(=O)N[C@@H](CCC(=O)O)C(=O)N[C@@H](Cc2ccccc2)C(=O)N[C@H](C(=O)N[C@@H](CCC(=O)O)C(=O)N[C@@H](Cc2c[nH]c3ccccc23)C(=O)N[C@@H](CC(C)C)C(=O)N[C@@H](CC(C)C)C(=O)N[C@@H](C)C(=O)N[C@H](CCC(=O)O)C(=O)NCC(=O)N2CCC[C@H]2C(=O)N[C@@H](CO)C(=O)N[C@@H](CO)C(=O)NCC(=O)N[C@@H](C)C(=O)N2CCC[C@H]2C(=O)N2CCC[C@H]2C(=O)N2CCC[C@H]2C(=O)N[C@@H](CO)C(N)=O)C(C)C)CC1"}}, "assay_in_all_cases": "cell-based or functional assay", "key": {"[1]": {"target": "T1, human glucagon receptor (human, UniProt P47871 26-477)", "T1 sequence (P47871 26-477)": "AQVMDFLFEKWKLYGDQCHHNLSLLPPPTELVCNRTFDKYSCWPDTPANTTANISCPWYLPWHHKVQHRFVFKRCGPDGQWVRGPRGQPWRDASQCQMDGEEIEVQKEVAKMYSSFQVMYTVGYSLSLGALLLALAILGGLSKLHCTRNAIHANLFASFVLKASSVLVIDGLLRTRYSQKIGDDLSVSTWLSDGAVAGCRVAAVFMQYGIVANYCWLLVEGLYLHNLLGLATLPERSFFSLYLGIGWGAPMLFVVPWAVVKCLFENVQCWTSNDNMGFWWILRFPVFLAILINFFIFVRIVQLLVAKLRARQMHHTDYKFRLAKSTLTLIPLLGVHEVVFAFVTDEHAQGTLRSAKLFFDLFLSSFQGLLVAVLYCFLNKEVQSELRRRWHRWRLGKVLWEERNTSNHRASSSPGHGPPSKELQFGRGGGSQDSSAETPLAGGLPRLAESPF"}, "[2]": {"target": "T2, human glucose-dependent insulinotropic polypeptide receptor (human, UniProt P48546 22-466)", "T2 sequence (looked up)": "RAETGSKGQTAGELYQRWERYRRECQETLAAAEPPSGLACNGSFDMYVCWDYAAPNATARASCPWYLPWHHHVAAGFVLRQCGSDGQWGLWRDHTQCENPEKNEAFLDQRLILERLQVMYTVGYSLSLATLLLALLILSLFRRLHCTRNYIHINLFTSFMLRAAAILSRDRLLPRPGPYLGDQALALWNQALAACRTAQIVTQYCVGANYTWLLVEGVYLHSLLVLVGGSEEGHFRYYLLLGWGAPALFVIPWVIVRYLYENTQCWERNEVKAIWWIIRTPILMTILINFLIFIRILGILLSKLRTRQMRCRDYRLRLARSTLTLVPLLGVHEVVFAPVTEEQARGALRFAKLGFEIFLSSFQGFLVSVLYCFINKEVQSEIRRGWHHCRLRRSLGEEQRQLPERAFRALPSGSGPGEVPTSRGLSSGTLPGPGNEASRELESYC"}, "[3]": {"target": "T1, human glucagon receptor", "remark": "listed apart in the source"}, "[4]": {"target": "T2, human glucose-dependent insulinotropic …", "remark": "listed apart in the source"}, "[5]": {"target": "T3, human glucagon-like peptide-1 receptor (human, UniProt P43220 24-463)"}, "[6]": {"target": "T1, human glucagon receptor", "remark": "listed apart in the source"}, "[7]": {"target": "T2, human glucose-dependent insulinotropic …", "remark": "listed apart in the source"}, "[8]": {"target": "T3, human glucagon-like peptide-1 receptor", "remark": "listed apart in the source"}, "[9]": {"target": "T1, human glucagon receptor", "remark": "listed apart in the source"}}, "note": "Where two headings read alike, the source gives them in different places. Starred links: 1 amine or outer side, 2 acyl side, 3 side chain; linkers in the order of their positions; H or OH if unused. Non-standard residues stand in square brackets, D forms with d. Groups on a side chain read outwards from the residue. No end group written: not given here. *: point of attachment. C20 diacid = O=C(O)CCCCCCCCCCCCCCCCCCC(=O)*; γGlu = O=C(O)[C@H](CCC(=O)[*:2])N[*:1]; αMeL = CC(C)C[C@](C)(N)C(=O)O; Iva = CC[C@](C)(N)C(=O)O; Ac4c = NC1(C(=O)O)CCC1; AEEA = NCCOCCOCC(=O)O; Ac3c = NC1(C(=O)O)CC1; Aib = CC(C)(N)C(=O)O", "data": [{"binder": "B1", "values": [{"measurement": "Activity against human GCGR (EC50 nM)", "setting": "[1]", "result": 0.566, "unit": "nM"}, {"measurement": "Activity against human GIPR (EC50 nM)", "setting": "[2]", "result": 0.019, "unit": "nM"}]}, {"binder": "B2", "values": [{"measurement": "Activity against human GCGR (EC50 nM)", "setting": "[1]", "result": 1.33, "unit": "nM"}, {"measurement": "Activity against human GIPR (EC50 nM)", "setting": "[2]", "result": 0.008, "unit": "nM"}]}, {"binder": "B3", "values": [{"measurement": "Activity against human GCGR (EC50 nM)", "setting": "[3]", "result": 0.039, "unit": "nM"}, {"measurement": "Activity against human GIPR (EC50 nM)", "setting": "[4]", "result": 0.001, "unit": "nM"}]}, {"binder": "B4", "values": [{"measurement": "Activity against human GLP-1R (EC50 nM)", "setting": "[5]", "result": 0.06, "unit": "nM"}, {"measurement": "Activity against human GCGR (EC50 nM)", "setting": "[6]", "result": 0.549, "unit": "nM"}, {"measurement": "Activity against human GIPR (EC50 nM)", "setting": "[7]", "result": 0.006, "unit": "nM"}]}, {"binder": "B5", "values": [{"measurement": "Activity against human GLP-1R (EC50 nM)", "setting": "[5]", "result": 0.037, "unit": "nM"}, {"measurement": "Activity against human GCGR (EC50 nM)", "setting": "[6]", "result": 0.055, "unit": "nM"}, {"measurement": "Activity against human GIPR (EC50 nM)", "setting": "[7]", "result": 0.004, "unit": "nM"}]}, {"binder": "B6", "values": [{"measurement": "Activity against human GLP-1R (EC50 nM)", "setting": "[8]", "result": 0.016, "unit": "nM"}, {"measurement": "Activity against human GCGR (EC50 nM)", "setting": "[9]", "result": 0.274, "unit": "nM"}]}, {"binder": "B7", "values": [{"measurement": "Activity against human GLP-1R (EC50 nM)", "setting": "[5]", "result": 0.076, "unit": "nM"}, {"measurement": "Activity against human GCGR (EC50 nM)", "setting": "[6]", "result": 0.076, "unit": "nM"}, {"measurement": "Activity against human GIPR (EC50 nM)", "setting": "[7]", "result": 0.002, "unit": "nM"}]}, {"binder": "B8", "values": [{"measurement": "Activity against human GLP-1R (EC50 nM)", "setting": "[5]", "result": 0.071, "unit": "nM"}, {"measurement": "Activity against human GCGR (EC50 nM)", "setting": "[6]", "result": 0.301, "unit": "nM"}, {"measurement": "Activity against human GIPR (EC50 nM)", "setting": "[7]", "result": 0.004, "unit": "nM"}]}]}
